The target of test [1] is T1, Aβ42 (synthetic, fibrillar) (UniProt P05067 672-713).
T1 construct: domain: Aβ42; also called fibrillar Aβ42; Aβ42 peptide
Kind of test: ELISA, Aβ42 coated, rat recombinant ankG in solution. A general note: ELISA stands for enzyme-linked immunosorbent assay.

The target in test [2] is T2, Aβ40 (synthetic, fibrillar) (UniProt P05067 672-711).
T2 construct: domain: Aβ40; also called fibrillar Aβ40; Aβ40 peptide
Kind of test: ELISA, Aβ40 coated, rat recombinant ankG in solution.

In test [3] the target is T3, ankG in human brain homogenate (human, UniProt Q12955 1-4377, limits assumed).
T3 construct: Endogenous protein in co-immunoprecipitation; also called ankG (human frontal cortex, hippocampus, AD hippocampus)
Kind of test: co-immunoprecipitation (ankG immunoprecipitate) from human AD hippocampus, Western blot. From the text:
FIG. 6: AnkG interacts directly with APP in the brain [0020] (a) AnkG and APP immunoprecipitates from human frontal cortex were immunoblotted with specific antibodies against ankG, APP and ankB. Immunoprecipitates with non-immune IgG served as a negative control. Note that APP co-immunoprecipitated with ankG and vice versa. Human brain homogenate (C) was used as positive control. (b) AnkG immunoprecipitates were obtained from arcAbeta (TG), non-transgenic (NTG) littermates and APP deficient (−/−) mouse brains. Note that APP, but not ankB, co-immunoprecipitated with ankG. Mouse brain homogenate (C) was used as positive control. (c) Primary rat hippocampal cultures were stained with antibodies against the C-terminal portion of APP (green) and with antibodies against ankG (red). Note the presence of both ankG and APP in the AIS. Scale bar=10 μm (upper panels) and Scale bar=30 μm (lower panels). […] AnkG binding to BSA-coated wells (2 mg/ml) served as negative control. Mean values (OD₄₅₀)±SEM are shown (n=6). (e) AnkG and APP immunoprecipitates from human AD hippocampus were immunoblotted with specific antibodies against APP and Caspr and L1. Immunoprecipitates with non-immune IgG served as a negative control. As already shown in (a) APP co-immunoprecipitated with ankG. Note the absence of Caspr and L1 from the immunoprecipitates. AD hippocampus homogenate (+) was used as positive control. […]
A general note: A western blot detects proteins with antibodies after separation by electrophoresis.

T1 sequence (P05067 672-713 limits assumed): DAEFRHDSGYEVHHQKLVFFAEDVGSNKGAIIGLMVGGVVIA
T2 sequence (P05067 672-711 limits assumed): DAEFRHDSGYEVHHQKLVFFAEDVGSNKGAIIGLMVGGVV
T3 sequence (Q12955 whole entry): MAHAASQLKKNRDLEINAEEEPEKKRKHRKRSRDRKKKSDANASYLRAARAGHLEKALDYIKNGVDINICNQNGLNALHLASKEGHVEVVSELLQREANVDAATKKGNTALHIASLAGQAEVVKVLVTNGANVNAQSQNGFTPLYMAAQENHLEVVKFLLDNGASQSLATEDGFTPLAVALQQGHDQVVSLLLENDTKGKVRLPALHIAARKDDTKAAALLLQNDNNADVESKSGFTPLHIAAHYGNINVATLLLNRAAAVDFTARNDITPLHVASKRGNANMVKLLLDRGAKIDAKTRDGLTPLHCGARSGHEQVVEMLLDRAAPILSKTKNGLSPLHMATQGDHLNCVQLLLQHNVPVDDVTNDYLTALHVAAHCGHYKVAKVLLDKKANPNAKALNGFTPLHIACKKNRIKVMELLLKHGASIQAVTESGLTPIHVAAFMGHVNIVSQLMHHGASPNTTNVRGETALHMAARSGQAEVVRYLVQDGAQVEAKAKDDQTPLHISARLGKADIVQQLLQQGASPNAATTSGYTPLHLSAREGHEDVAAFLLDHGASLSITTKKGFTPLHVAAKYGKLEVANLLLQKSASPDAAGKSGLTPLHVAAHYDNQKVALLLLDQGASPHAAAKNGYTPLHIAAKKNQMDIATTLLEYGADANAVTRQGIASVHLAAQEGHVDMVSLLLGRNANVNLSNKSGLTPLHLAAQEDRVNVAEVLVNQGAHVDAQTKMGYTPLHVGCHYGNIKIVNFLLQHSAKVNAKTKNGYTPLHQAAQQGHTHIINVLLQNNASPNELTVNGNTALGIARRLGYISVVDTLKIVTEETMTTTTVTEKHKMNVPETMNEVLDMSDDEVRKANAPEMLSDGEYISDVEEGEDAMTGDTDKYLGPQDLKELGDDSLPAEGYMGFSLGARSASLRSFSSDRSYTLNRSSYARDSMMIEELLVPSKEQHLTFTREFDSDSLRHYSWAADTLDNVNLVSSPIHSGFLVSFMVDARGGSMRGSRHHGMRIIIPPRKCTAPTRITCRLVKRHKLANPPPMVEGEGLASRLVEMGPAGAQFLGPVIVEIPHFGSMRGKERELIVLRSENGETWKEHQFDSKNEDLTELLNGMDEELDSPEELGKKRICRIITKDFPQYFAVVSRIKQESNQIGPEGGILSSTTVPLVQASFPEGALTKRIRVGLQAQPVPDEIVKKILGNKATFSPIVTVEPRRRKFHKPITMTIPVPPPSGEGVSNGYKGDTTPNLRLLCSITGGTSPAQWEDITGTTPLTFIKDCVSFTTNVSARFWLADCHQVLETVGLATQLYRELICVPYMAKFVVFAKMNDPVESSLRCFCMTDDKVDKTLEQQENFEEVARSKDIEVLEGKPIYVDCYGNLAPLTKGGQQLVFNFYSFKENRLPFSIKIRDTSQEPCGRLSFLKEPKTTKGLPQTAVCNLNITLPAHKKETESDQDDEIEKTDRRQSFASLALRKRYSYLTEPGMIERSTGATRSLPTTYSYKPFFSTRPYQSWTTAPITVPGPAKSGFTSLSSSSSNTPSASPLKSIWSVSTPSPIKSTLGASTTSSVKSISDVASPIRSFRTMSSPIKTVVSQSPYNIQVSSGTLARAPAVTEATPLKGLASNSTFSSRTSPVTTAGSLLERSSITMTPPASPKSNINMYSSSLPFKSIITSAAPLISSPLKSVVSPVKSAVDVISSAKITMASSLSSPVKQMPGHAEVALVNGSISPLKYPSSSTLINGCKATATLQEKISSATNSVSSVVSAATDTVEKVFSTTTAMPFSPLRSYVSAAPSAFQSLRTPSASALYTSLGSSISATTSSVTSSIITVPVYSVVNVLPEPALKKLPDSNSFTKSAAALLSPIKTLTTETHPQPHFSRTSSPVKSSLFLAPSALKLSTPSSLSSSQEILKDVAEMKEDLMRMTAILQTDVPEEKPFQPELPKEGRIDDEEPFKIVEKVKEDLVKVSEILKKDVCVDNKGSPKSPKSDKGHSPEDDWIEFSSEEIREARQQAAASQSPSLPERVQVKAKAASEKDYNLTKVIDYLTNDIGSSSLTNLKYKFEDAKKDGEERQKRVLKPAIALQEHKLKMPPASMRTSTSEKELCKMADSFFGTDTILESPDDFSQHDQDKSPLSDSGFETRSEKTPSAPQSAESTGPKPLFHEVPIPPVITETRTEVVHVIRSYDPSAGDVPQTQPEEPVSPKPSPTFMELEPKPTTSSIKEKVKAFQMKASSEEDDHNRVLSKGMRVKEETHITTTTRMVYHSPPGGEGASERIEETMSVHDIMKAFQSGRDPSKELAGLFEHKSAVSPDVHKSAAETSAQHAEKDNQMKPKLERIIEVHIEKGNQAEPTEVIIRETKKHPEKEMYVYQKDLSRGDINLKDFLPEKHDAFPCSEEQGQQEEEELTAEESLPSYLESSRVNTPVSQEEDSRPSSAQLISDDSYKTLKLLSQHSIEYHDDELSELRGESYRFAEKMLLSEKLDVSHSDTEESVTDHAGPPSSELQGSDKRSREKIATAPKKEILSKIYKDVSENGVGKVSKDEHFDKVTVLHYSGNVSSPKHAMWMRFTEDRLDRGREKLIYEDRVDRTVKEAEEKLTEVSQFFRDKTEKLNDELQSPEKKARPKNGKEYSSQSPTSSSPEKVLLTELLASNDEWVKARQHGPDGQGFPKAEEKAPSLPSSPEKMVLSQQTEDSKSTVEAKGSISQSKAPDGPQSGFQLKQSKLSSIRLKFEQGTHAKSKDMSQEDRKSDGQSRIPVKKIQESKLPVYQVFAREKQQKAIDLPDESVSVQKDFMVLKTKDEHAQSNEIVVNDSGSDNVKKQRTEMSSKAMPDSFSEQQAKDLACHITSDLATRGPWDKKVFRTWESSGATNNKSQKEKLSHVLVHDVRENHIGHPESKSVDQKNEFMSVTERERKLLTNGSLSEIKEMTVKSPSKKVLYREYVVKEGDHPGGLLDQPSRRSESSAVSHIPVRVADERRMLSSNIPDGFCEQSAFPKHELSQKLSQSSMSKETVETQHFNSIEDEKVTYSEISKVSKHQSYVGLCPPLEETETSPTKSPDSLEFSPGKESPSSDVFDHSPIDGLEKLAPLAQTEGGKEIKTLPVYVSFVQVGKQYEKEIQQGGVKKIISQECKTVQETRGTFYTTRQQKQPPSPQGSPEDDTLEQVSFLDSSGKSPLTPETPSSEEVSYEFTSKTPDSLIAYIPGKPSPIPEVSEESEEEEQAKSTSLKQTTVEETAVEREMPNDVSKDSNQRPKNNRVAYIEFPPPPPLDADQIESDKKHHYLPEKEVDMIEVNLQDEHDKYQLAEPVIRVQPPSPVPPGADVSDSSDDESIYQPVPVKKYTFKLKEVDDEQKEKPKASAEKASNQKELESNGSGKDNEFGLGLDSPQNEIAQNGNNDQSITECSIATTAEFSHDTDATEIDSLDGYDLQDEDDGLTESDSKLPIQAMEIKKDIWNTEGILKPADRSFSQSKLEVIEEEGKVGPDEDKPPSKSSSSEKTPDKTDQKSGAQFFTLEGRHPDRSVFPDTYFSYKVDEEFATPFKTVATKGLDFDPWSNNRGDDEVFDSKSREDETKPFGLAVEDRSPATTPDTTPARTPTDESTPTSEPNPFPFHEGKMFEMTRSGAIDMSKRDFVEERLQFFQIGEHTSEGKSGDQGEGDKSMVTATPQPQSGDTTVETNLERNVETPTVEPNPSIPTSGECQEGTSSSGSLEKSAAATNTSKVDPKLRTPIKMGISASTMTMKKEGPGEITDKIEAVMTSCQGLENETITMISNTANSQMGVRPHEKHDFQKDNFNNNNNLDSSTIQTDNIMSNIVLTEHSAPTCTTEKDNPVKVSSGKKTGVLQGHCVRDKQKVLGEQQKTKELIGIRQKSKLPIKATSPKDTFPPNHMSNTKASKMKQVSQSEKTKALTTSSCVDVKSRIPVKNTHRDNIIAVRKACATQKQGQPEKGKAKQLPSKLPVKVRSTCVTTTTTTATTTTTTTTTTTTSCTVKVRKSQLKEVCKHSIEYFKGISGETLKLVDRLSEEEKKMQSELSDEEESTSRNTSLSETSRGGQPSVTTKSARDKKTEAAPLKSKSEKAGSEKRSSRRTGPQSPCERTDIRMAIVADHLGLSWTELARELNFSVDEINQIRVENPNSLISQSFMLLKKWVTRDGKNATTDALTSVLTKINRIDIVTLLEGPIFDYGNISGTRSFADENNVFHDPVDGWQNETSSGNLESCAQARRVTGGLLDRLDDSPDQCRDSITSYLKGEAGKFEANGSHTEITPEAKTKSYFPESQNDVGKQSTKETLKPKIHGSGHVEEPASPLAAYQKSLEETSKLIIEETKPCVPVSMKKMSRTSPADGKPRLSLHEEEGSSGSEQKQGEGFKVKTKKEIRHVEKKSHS

B1: rat recombinant ankG (ankyrin G) (other, UniProt O70511-3 1-1806, looked up)
chain: MSEEAKEKTAKPAHRKRKGKKSDANASYLRAARAGHLEKALDYIKNGVDVNICNQNGLNALHLASKEGHVEVVSELLQREANVDAATKKGNTALHIASLAGQAEVVKVLVTNGANVNAQSQNGFTPLYMAAQENHLEVVRFLLDNGASQSLATEDGFTPLAVALQQGHDQVVSLLLENDTKGKVRLPALHIAARKDDTKAAALLLQNDTNADIESKSGFTPLHIAAHYGNINVATLLLNRAAAVDFTARNDITPLHVASKRGNANMVKLLLDRGAKIDAKTRDGLTPLHCGARSGHEQVVEMLLDRAAPILSKTKNGLSPLHMATQGDHLNCVQLLLQHNVPVDDVTNDYLTALHVAAHCGHYKVAKVLLDKKANPNAKALNGFTPLHIACKKNRIRVMELLLKHGASIQAVTESGLTPIHVAAFMGHVNIVSQLMHHGASPNTTNVRGETALHMAARSGQAEVVRYLVQDGAQVEAKAKDDQTPLHISARLGKADIVQQLLQQGASPNAATTSGYTPLHLSAREGHEDVAAFLLDHGASLSITTKKGFTPLHVAAKYGKLEVASLLLQKSASPDAAGKSGLTPLHVAAHYDNQKVALLLLDQGASPHAAAKNGYTPLHIAAKKNQMDIATSLLEYGADANAVTRQGIASVHLAAQEGHVDMVSLLLSRNANVNLSNKSGLTPLHLAAQEDRVNVAEVLVNQGAHVDAQTKMGYTPLHVGCHYGNIKIVNFLLQHSAKVNAKTKNGYTPLHQAAQQGHTHIINVLLQNNASPNELTVNGNTALAIARRLGYISVVDTLKVVTEEIMTTTTITEKHKMNVPETMNEVLDMSDDEGEDAITGDTDKYLGPQDLKELGDDSLPAEGYVGFSLGARSASPKISSDRSYTLNRSSYARDSMMIEELLVPSKEQHLPFTREFDSDSLRHYSWAADTLDNVNLVSSPVHSGFLVSFMVDARGGSMRGSRHHGMRIIIPPRKCTAPTRITCRLVKRHKLANPPPMVEGEGLASRLVEMGPAGAQFLGPVIVEIPHFGSMRGKERELIVLRSENGETWKEHQFDSKNEDLSELLNGMDEELDSPEELGTKRICRIITKDFPQYFAVVSRIKQESNQIGPEGGILSSTTVPLVQASFPEGALTKRIRVGLQAQPVPEETVKKILGNKATFSPIVTVEPRRRKFHKPITMTIPVPPPSGEGVSNGYKGDTTPSLRLLCSITGGTSPAQWEDITGTTPLTFIKDCVSFTTNVSARFWLADCHQVLETVGLASQLYRELICVPYMAKFVVFAKTNDPVESSLRCFCMTDDRVDKTLEQQENFEEVARSKDIEVLEGKPIYVDCYGNLAPLTKGGQQLVFNFYSFKENRLPFSIKVRDTSQEPCGRLSFLKEPKTTKGLPQTAVCNLNITLPAHKKAEKADRRQSFTSLALRPQSPCERTDIRMAIVADHLGLSWTELARELNFSVDEINQIRVENPNSLISQSFMLLKKWVTRDGKNATTDALTSVLTKINRIDIVTLLEGPIFDYGNISGTRSFADENNVFHDPVDGWQNETPSGSLESPAQARRITGGLLDRLDDSSDQVRDPITSYLTGEAGKFEANGNHAEVIPEAKAKAYFPESQNDIGKQSIKENLKPKTHGCGRAEEPVSPLTAYQKSLEETSKLVIEDAPKPCVPVGMKKMTRTPADGKARLNLQEEEGSARSEPKQVKSPGEAFTRMTACCYKDLRHSESDSSSEEERRVTTRVIRRRVIIKGEEAKTIPGESVTEEQFTDEEGNLITRKITRKVIRRIGPQERKQDDVQGEGYKVKTKKEIRNVEKKAH
notes: An immunoreactive band of about 190 kDa is reported; also called purified ankG; recombinant ankG protein
With B1, the binding result in test [1] and in test [2] was “no binding (tested: ankG 0-2.5 µg/ml)” each time.

B2: Caspr in human AD hippocampus homogenate (other, UniProt P78357 20-1384, looked up)
chain: WGYYGCDEELVGPLYARSLGASSYYSLLTAPRFARLHGISGWSPRIGDPNPWLQIDLMKKHRIRAVATQGSFNSWDWVTRYMLLYGDRVDSWTPFYQRGHNSTFFGNVNESAVVRHDLHFHFTARYIRIVPLAWNPRGKIGLRLGLYGCPYKADILYFDGDDAISYRFPRGVSRSLWDVFAFSFKTEEKDGLLLHAEGAQGDYVTLELEGAHLLLHMSLGSSPIQPRPGHTTVSAGGVLNDQHWHYVRVDRFGRDVNFTLDGYVQRFILNGDFERLNLDTEMFIGGLVGAARKNLAYRHNFRGCIENVIFNRVNIADLAVRRHSRITFEGKVAFRCLDPVPHPINFGGPHNFVQVPGFPRRGRLAVSFRFRTWDLTGLLLFSRLGDGLGHVELTLSEGQVNVSIAQSGRKKLQFAAGYRLNDGFWHEVNFVAQENHAVISIDDVEGAEVRVSYPLLIRTGTSYFFGGCPKPASRWDCHSNQTAFHGCMELLKVDGQLVNLTLVEGRRLGFYAEVLFDTCGITDRCSPNMCEHDGRCYQSWDDFICYCELTGYKGETCHTPLYKESCEAYRLSGKTSGNFTIDPDGSGPLKPFVVYCDIRENRAWTVVRHDRLWTTRVTGSSMERPFLGAIQYWNASWEEVSALANASQHCEQWIEFSCYNSRLLNTAGGYPYSFWIGRNEEQHFYWGGSQPGIQRCACGLDRSCVDPALYCNCDADQPQWRTDKGLLTFVDHLPVTQVVIGDTNRSTSEAQFFLRPLRCYGDRNSWNTISFHTGAALRFPPIRANHSLDVSFYFRTSAPSGVFLENMGGPYCQWRRPYVRVELNTSRDVVFAFDVGNGDENLTVHSDDFEFNDDEWHLVRAEINVKQARLRVDHRPWVLRPMPLQTYIWMEYDQPLYVGSAELKRRPFVGCLRAMRLNGVTLNLEGRANASEGTSPNCTGHCAHPRLPCFHGGRCVERYSYYTCDCDLTAFDGPYCNHDIGGFFEPGTWMRYNLQSALRSAAREFSHMLSRPVPGYEPGYIPGYDTPGYVPGYHGPGYRLPDYPRPGRPVPGYRGPVYNVTGEEVSFSFSTSSAPAVLLYVSSFVRDYMAVLIKDDGTLQLRYQLGTSPYVYQLTTRPVTDGQPHSINITRVYRNLFIQVDYFPLTEQKFSLLVDSQLDSPKALYLGRVMETGVIDPEIQRYNTPGFSGCLSGVRFNNVAPLKTHFRTPRPMTAELAEALRVQGELSESNCGAMPRLVSEVPPELDPWYLPPDFPYYHDEGWVAILLGFLVAFLLLGLVGMLVLFYLQNHRYKGSYHTNEPKAAHEYHPGSKPPLPTSGPAQVPTPTAAPNQAPASAPAPAPTPAPAPGPRDQNLPQILEESRSE
Turning to B2, the binding result in test [3] is given as “no binding”.
